The text below walks through data of US20240018501A1, “HIGHER PERFORMANCE PROTEASES FOR SCARLESS PEPTIDE TAG REMOVAL” (priority 2017, published 2024).

Data set [1] has as its target T1, LanA3 encoded by the genome of B. cereus VD156.
T1 chain: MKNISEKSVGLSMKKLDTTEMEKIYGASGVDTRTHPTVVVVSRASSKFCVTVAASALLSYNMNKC

The test system of the next data set is CylA. In words: CylA self-cleavage (SDS-PAGE, MALDI-TOF MS). In kind it is biochemical, Enterococcus faecalis. The procedure:
E. coli BL21 (DE3) cells were transformed with pRSFDuet-1/CylA-27-412, pRSFDuet-1/CylA-27-412-E95A, pRSFDuet-1/CylA-27-412-S359A or pRSFDuet-1/LicP-25-433 vectors and plated on an LB plate containing 50 mg/L kanamycin. A single colony was picked and grown in 20 mL of LB with kanamycin at 37° C. for 12 h and the resulting culture was inoculated into 2 L of LB. Cells were cultured at 37° C. until the OD at 600 nm reached 0.5, cooled and IPTG was added to a final concentration of 0.1 mM. The cells were cultured at 18° C. for another 10 h before harvesting. The cell pellet was resuspended on ice in LanP start buffer (20 mM HEPES, 1 M NaCl, pH 7.5 at 25° C.) and lysed by homogenization. The lysed sample was centrifuged at 23,700×g for 30 min and the pellet was discarded. The supernatant was passed through 0.45-μm syringe filters and the protein was purified by immobilized metal affinity chromatography (IMAC) loaded with nickel as described in B. Li et al. Methods Enzymol. 2009, 458, 533. […] Protein concentration was quantified by its absorbance at 280 nm. The extinction coefficient for His6-CylA-27-412, His6-CylA-27-412-E95A and His6-CylA-27-412-S359A was calculated as 30,830 M^−1 cm^−1. The extinction coefficient for His6-LicP-25-433 was calculated as 46,300 M^−1 cm^−1. […]

The subject of data set [2] is modified CylLS. Kind of data set: Kinetic analysis of full length CylA and CylA-96-412 against modified CylLS (LC/MS). In kind it is biochemical, Enterococcus faecalis. The protocol:
Targeted peptides were dissolved in H2O to a final concentration of 3 mg/mL. To a 85 μL solution of peptides, 10 μL of 500 mM HEPES buffer (pH 7.5) was added followed by 5 μL of 0.5 mg/mL AspN protease (for modified CylLL and CylLS peptides), 0.1 mg/mL CylA protease (for modified and unmodified CylLL, CylLS peptides, and modified HalA2-GDVQAE peptide) or 0.1 mg/mL LicP protease (for LicA2). For cleavage tests of the engineered GDVQAE peptides, CylA was added to a final concentration of 0.01 mg/mL, whereas the peptide was added to a concentration of 0.3 mg/mL with 50 mM HEPES buffer (pH 7.5). The protease cleavage reaction mixtures were kept at 25° C. for 1 to 48 h. Osmotic pressure was adjusted with NaCl solution with a final concentration of 150 mM. The digested peptide mixture was directly used for antimicrobial and hemolytic assay. For the kinetic analysis of CylA and its mutant proteins, His6-CylA-27-412 and His6-CylA-27-412-E95A proteins were added to a final concentration of 500 ng/mL and 2.5 μg/mL (22 nM and 110 nM), respectively, with modified CylLS supplied at a concentration of 0.3 mg/mL (36 μM). The reactions were allowed to proceed at room temperature and were stopped by 1% TFA at different time points for LC/MS analysis. Halα and Halβ were obtained by factor Xa cleavage of modified HalA1Xa and HalA2 Xa peptides using the procedure of Y. Shi, et al. J. Am. Chem. Soc. 2011, 133, 2338. CylLL″ and CylLS″ were prepared in the same way using modified CylLL-E-1K and CylLS-E-1K peptides as described in W. Tang and W. A. van der Donk, Nat. Chem. Biol. 2013, 9, 157.
As full length CylA is not available due to its self-cleavage, His6-CylA-27-412-E95A was chosen to serve as a substituent of full length CylA as the self-cleavage was abolished whereas the conserved catalytic C-terminal region of CylA remained unchanged. To obtain the mature protease CylA-96-412, His6-CylA-27-412 was aged at 4° C. for 12 hours to allow the self-cleavage to proceed until CylA-96-412 was the dominant peak monitored by MALDI-TOF MS. The aged protein mixture was directly used as a substituent of CylA-96-412. To test the proteases' activities, CylA-96-412 and His6-CylA-27-412-E95A were supplied with a final concentration of 22 nM and 110 nM, respectively, with modified CylLS served at a concentration of 36 μM. The reactions were stopped at 3 minute, 6 minute, 12 minute and 24 minute by 1% TFA and the formation of mature CylLS″ was monitored by liquid chromatography MS (LC/MS). […] The production of core peptide was analyzed by extracted ion chromatography monitoring the desired product mass 1017 (M+2H^+).

The target of data set [3] is modified CylLS.
Data set [4] concerns the target dehydrated and cyclized LanA2 from B. licheniformis 9945A.

B1: LanP of B. cereus VD156 (without signal sequence, with His6 tag) (protein)
chain: MGSSHHHHHHSQDPTQIAYYSILIRDNTDFNTVLDKLSKDNQEVVYSIPEVNLIQVKGEKGKIISGIGLESIEEINPSTGEFKTYTPNINDQKVLDNKAIWDVQWDIKRITNNGESYKLHSPSGKVSVALIDSGYPENHPDIKSISIQKSKNLVPKGGYKGNEENETGNIHQLTDRTGHGTSVLSQVNADGLMKGVAPGMPVNMYRVFGESSAEGSWIIKGIIEAAKDKNDVINISAGSYLLKNGTYSDGSGNNRAEIKAYEKAIHYANKKGSIVVSALGNDSININIYSELLSILNSKIKDEGKSATGIVQDIPAQLAQVVSVASTGMDSKVSSFSNYGKNIIDFTAPGGDIKLLNKFGADVWMAEEMFKKEMILVAHPQGGYYFNYGNSLATPKVSGALALVIDKYGYKNKPNKAINHLKRNTNAENEIDLYKALQE
As to B1, the “cleavage by the corresponding LanP, MALDI-TOF MS” value in data set [1] is “the core peptide is detected ... and the leader peptide is also observed”.

B2: His6-CylA-27-412-E95A (protein)
chain: MKRIYIFLLCFAVLLPVGGKTAQAKEQAGEQYLLLEHVKDKSKLLDTAEQFHIHADVIEEIGFAKVTGEKQKLAPFTKKLAEKVGADVIEKPIANTAVNETESVISGSPAWGLDGILELKEYLWFAAKQTDSYRTYQIERGHPDVKVALIDSGLDLDHPDLKASVNTNGGWNYIDGKPVSGDPTGHGTQTAGMINIIAPDVTITPYQVLDEKGGDSYNIMKAMVDAVNDGHEVINISTGSYTSLDREGKVLMKAYQRAANYAAKHQVLVFSSAGNKGVNLDEMRKTENKVHLPSALKHVVSVGSNMKSNNISPYSNQGREIEFTAPGGYLGETYDQDGMVRVTDLVLTTYPKGKDNTALDQMLNIPKGYSLSYGTSLAAPQVAGTAALVISEYRERHHRKPSAKQVHHILRKSALDLGKPGKDVIYGYGEVRAYQALKMMNKE
On to B2, for which the “CylA self-cleavage during expression or purification” value in the data set on CylA is “only one band corresponding to the full length protein”. Also, in the data set on modified CylLS [2], the “cleavage of modified CylLS” value is listed as “resulted in cleavage”. Moreover, the “lower rate of producing CylLS″” value in the data set on modified CylLS [2] (enzyme 110 nM, modified CylLS 36 μM, versus CylA-96-412) is approximately 10 fold. Moreover, in the data set with modified CylLS [3], the “cleavage by His6-CylA-27-412-E95A” value is reported as “Incubation of modified CylLS with His6-CylA-27-412-E95A resulted in cleavage” and the “fold lower rate of producing CylLS″ than CylA-96-412 (LC/MS; 110 nM enzyme, 36 µM substrate)” value is on record as “exhibited an approximate 10-fold lower rate of producing CylLS″”.

B3: His6-CylA-27-412: CylA without secretion signal residues 1-26, N-terminal hexa-histidine tag, SEQ ID NO: 10 (protein)
chain: MGSSHHHHHHSQDPNSLSNNISFFIDNSQTTAIEEIESELSSEKVDYIQEIGLVSFKNLDDSDRKFIGKYFNVSEGKKLPDFKPEEVNSSILNINILNKDFKSFNWPYKKILSHIDPVKEQLGKDITIALIDSGIDRLHPNLQDNNLRLKNYVNDIELDEYGHGTQVAGVIDTIAPRVNLNSYKVMDGTDGNSINMLKAIVDATNDQVDIINVSLGSYKNMEIDDERFTVEAFRKVVNYARKNNILIVASAGNESRDISTGNEKHIPGGLESVITVGATKKSGDIADYSNYGSNVSIYGPAGGYGDNYKITGQIDAREMMMTYYPTSLVSPLGKAADFPDGYTLSFGTSLATPEVSAALAAIMSKNVDNSKDSNEVLNTLFENADSFIDKNSMLKYKEVRIK
modifications: N-terminal His6 tag; … PEPTIDE SEQUENCE FOR CylA with His6-tag, without the secretion signal peptide.
Consider B3, for which the “CylA self-cleavage during expression or purification” value with CylA is “cleavage event after residue Glu95”.

B4: LanP from B. licheniformis 9945A (without signal sequence, with His6 tag) (protein)
chain: MGSSHHHHHHSQDPDRYTIYLESPAHHDDWVKTLNERNIKLVYSVEEIGLYQIEGRQKEVQELAAEINYINSHNQSVAMQPASLHNTAPAEATIFGGTPTLWDDFQWDMRKATNNGQTYQITEGSKNTIVGIIDSGIDMNHPDLKENILSVRNFVPKGGLRGQEPYEKGDINDSTDYLGHGTFVAGQIAANGLMKGIAPETGIRSYRVFGGKSADTVWIIDAIIQAAIDDVDIINVSFGTFLVKQNRKNKQMPDTNDLAEIKAFKKAVSFAHKKGSAVVASIGNEGLDLKDKNAVFEYWRSTKQEDLSADGKVILIPAQLPNVVTVSSIGPSGMRSVFSNYGKNVVDIAADGGDLRLLNEVGEDRYYGEGLFRQEYILGAAPGVTYTFSIGTSIAAPKVSGALALLIDQKQLHDKPDKAVKILLKNADRNADKIDTGAGVLNVYRALTD
For B4, in data set [4], the “cleavage by the corresponding LanP, MALDI-TOF MS” value is recorded as “fully modified core peptide is observed after protease treatment (inset) ... the leader peptide is also observed”.
